According to the supplement of paper PMC12764529:
± gives the half width of the 95% confidence interval.

Columns and labels:
[1] = folding stability dG unfold from trypsin proteolysis; higher = more stable
In short: (§1)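 Only designs with AlphaFold2 dimer inter-PAE above 15 were retained; each was a mini-protein under 80 residues with no cysteine, in a PA-tagged cDNA display construct. After digestion with trypsin and chymotrypsin and sequencing, K50 was inferred by Bayesian fitting of counts, and unfolding free energy was derived per protease or combined against a sequence-predicted unfolded-state K50 and a shared folded-state K50.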

[2] = folding stability dG unfold from chymotrypsin proteolysis; higher = more stable
In short: as §1

[3] = folding stability dG unfold (combined trypsin and chymotrypsin); higher = more stable
In short: as §1

| Sequence | folding stability dG unfold [1] [kcal/mol] | folding stability dG unfold [2] [kcal/mol] | folding stability dG unfold [3] [kcal/mol] |
| --- | --- | --- | --- |
| SAAKITEVDVEVGGDTITTTFRLEIDGKPYLAVTRLEPLTDPDGNPRFIAVTELYDEDGNLVATLPSDLSAG [r14_465_TrMRF] | 1.59 ± 0.032 | 2.325 ± 0.018 | 2.06 ± 0.059 |
| SQWVIKIKFPNPDGEPVKIIFPVEEIQEIFKEEHGEPSSPQEFADRLAKHHPNVDVEIMPLDDMPPEQLNSA [r9_1085_TrROS] | -0.998 ± 0.66 | 0.42 ± 0.21 | -0.0736 ± 0.34 |
| GHRIKVNTVHTPSGTFSLTATVRYPDGTTVTYSFNLPSSPNDTFSVSVPESVPLTTVTTSTFQGDTETPTSS [r1_70_JUSTAS] | 1.02 ± 0.044 | 1.69 ± 0.18 | 1.49 ± 0.12 |
| SAGGLKIVETKTEPEIGKRYVVIEVYKPETGKPILYVVPLDLEKGENSPEAVAKAILKELKLPPGVKASAGG [r13_362_TrMRF] | 0.58 ± 0.082 | 1.71 ± 0.16 | 1.24 ± 0.18 |
| SAGGSKDLEIKITKIKEWDPPNGKQTIRIPIEVYDPENGKPRPPAEELADELQKRFPGMPIKVEPVSAGGSA [r2_27_TrROS] | -0.416 ± 0.29 | 0.863 ± 0.028 | 0.441 ± 0.14 |
| SMSRPVEVEFELPLEGEGPVRLRATLVVDPESGVVEIPVRARFPEREEDVDLPPELLERLARRVLEELGGSA [r9_1136_TrMRF] | 0.744 ± 0.031 | 1.25 ± 0.034 | 1.1 ± 0.034 |
| SAGGDATIVLTDFPEDDPEARIRTARNLYRELKAAGPPLRINILTDTPLGREVADYLESEGIEVGLGSAGGS [r16_450_TrMRF] | -0.828 ± 0.43 | -0.206 ± 0.26 | -0.33 ± 0.2 |
| SAGGSAGMMTDVEVEEYPGTGLVRITIRTPDAVVSGEGRFLSPELLEITISFPGAGKRTNELIPVRSAGGSA [r15_837_JUSTAS] | 1.23 ± 0.072 | 1.26 ± 0.048 | 1.2 ± 0.088 |
| SMKIKIKVETNPNGEKKIEIEIELKEEDIEFDEGMTLEERKEKLRELAEELAKKLKEEGKEVKIVEIEVESA [r9_751_TrROS_Hall] | 1.8 ± 0.067 | 2.27 ± 0.048 | 2.1 ± 0.17 |
| SAGGSAMIEIKVEVNGKTYRITIEKNEDGTLTLTVYDEKTGKKTEIEIPLENLEELKKLNVKRIEISAGGSA [r15_629_TrROS_Hall] | 1.78 ± 0.077 | 3.54 ± 0.036 | 3.09 ± 0.12 |
| SAGGMPPENIKEITEVERNPDGMKEITIEMEDPELAKQGNPEQVDQMAEWLQDEFPDRGIPVTIEPGPSAGG [r13_243_TrROS] | 0.514 ± 0.081 | -0.435 ± 0.28 | 0.0457 ± 0.28 |
| SAGGSAGGSAPKPIEITFPAKSLEEAKIAAEEIKRAFEELEDVKVEVEYDPETGTVTVRVYGSAGGSAGGSA [r18_368_TrMRF] | 2.88 ± 0.12 | 3.58 ± 0.07 | 3.38 ± 0.088 |
| SAGGMPLVELEIVLPKEELEKLEEALRKLGYKVVKIEVVEYDPENDLVRVRIVLEKPMTLEELKKALKSAGG [r13_725_TrROS_Hall] | 3.72 ± 0.11 | 4.74 ± 0.18 | 4.63 ± 0.61 |
| SAGGSAKPEKVIVLEIEIEMTPEEVKKLVEELLKEKFGVEIERIEVEVERLPDGTLKVRVRVVIRESAGGSA [r15_138_TrROS_Hall] | 3.31 ± 0.13 | 2.94 ± 0.12 | 3.17 ± 0.084 |
| SAGGSALENLEENEYIVKIEIEKKNKKKIEIVIAGKPEKIKEIEKELKKKGFKILKIEPKKVKDVLSAGGSA [r15_640_TrMRF] | 1.45 ± 0.054 | 1.59 ± 0.066 | 1.56 ± 0.1 |
| SAGGSATPEEIAKKFFENHPELEPVEVKLEKFKIPGLKIWVVKVEITLKFKDNSKKKIPVVAVFPVSAGGSA [r15_266_TrMRF] | 2.02 ± 0.066 | 3.01 ± 0.039 | 2.72 ± 0.074 |
| SAGGMKTSAEELVERLKKELEAKGLKPKEVKKLPDGSLLVEFEEDVVVYIDAKTGTVTVLTPEEYEKLSAGG [r13_717_JUSTAS] | 1.7 ± 0.12 | 2.68 ± 0.05 | 2.4 ± 0.14 |
| SAMKVEIVEVKKNEDGSEEITIKIVVPDDKDMTPEELAALLKKEFGVDEVKVEVVDENGYKVITITIKRSAG [r14_228_TrROS_Hall] | 4.03 ± 0.26 | 3.55 ± 0.15 | 3.9 ± 0.24 |
| SAGGETVEIEVEMSPEEVREAIKKAAEALDAEVVEVKYDKETKKVTITVKKGATEEELRKALEEALKSAGGS [r8_338_TrROS_Hall] | 2.47 ± 0.12 | 1.78 ± 0.095 | 2.19 ± 0.095 |
| SAGGMKSETIPLTTPEGVPFEVTITTENGKVTVTITPLDPSAPEEVVEAVRAAVEARAAAAGKTVTLVSAGG [r13_774_JUSTAS] | 1.47 ± 0.046 | 1.37 ± 0.04 | 1.42 ± 0.07 |
| SAGGSAGGSAGGITPEYVERARKEAQDQYPPGKEREIIIRNPDNGKEITIRYTPDKIEIMSAGGSAGGSAGG [r7_45_TrROS] | 0.0182 ± 0.12 | -0.289 ± 0.16 | -0.147 ± 0.24 |

| Sequence | folding stability dG unfold [1] [kcal/mol] | folding stability dG unfold [2] [kcal/mol] | folding stability dG unfold [3] [kcal/mol] |
| --- | --- | --- | --- |
| SAGGSKWIPVSIWFPKGMTPEKVEEIARELVEAGYRIENIEVEREPDPNGREWYRVDITFRPPGDLSAGGSA [r2_442_TrROS] | 2.71 ± 0.085 | 3.01 ± 0.089 | 2.83 ± 0.18 |
| SAGGSAGGKYEIVEVEEKEVNGEKYLIFKVKNENGEELLITVSKEDAEKILASLPPGATVEILPSAGGSAGG [r6_111_TrROS_Hall] | 3.49 ± 0.56 | 3.76 ± 0.14 | 3.84 ± 0.25 |
| SAGGSAGGSSMTFEVVEIERPPGDEIRVLVKREDGREFAEITLPPGASPEEIERAVREAVEAESAGGSAGGS [r12_798_JUSTAS] | 0.707 ± 0.07 | 1.55 ± 0.057 | 1.26 ± 0.28 |
| SAGGSAGGSKAEVVEEKEIFTFPNGFVIKLTKVKNENGEEFEFIEIVPLPPELTEEELKKLKESAGGSAGGS [r12_775_TrROS_Hall] | 0.711 ± 0.033 | 2.14 ± 0.023 | 1.79 ± 0.065 |
| SSAEEIVEKLKKELEEKLPEDYKITSVTLTKSPDGIVTAPMTIKSSDGVESTVTVTYDLKTGKITIEVNSSA [r9_219_JUSTAS] | 3.42 ± 0.25 | 4.84 ± 0.12 | 4.73 ± 0.22 |
| VDLGIRTESVGGRRYRVLIRRPGTGEPRVLEVEGTLEEARERALREIREEYPDLPVRSINPVPVPAPPWLES [r1_80_TrMRF] | -0.153 ± 0.19 | -0.154 ± 0.14 | -0.139 ± 0.15 |
| SAGKTIVLPPEMTKEQIEALAKELAEEEGFEKVELVEYDEEKGVFTVKVKVDGKEKTIEIKIVSPEELESAG [r5_912_TrROS_Hall] | 1.62 ± 0.046 | 2.622 ± 0.022 | 2.3 ± 0.084 |
| SAGGVWIEITFLMPAEQLLNFIKNLAEEFGYQVNIDVKIQPYPNGPMVTHEIEIKPLPPKVPEEDQESAGGS [r16_262_TrROS] | 2.5 ± 0.13 | 3.99 ± 0.1 | 3.6 ± 0.16 |
| SAGGSAGGSKITVERNEDGELFVRITFKDGKTITIKAKSVEELKEKLKELGFDVKVEVVERKPSAGGSAGGS [r20_124_TrROS_Hall] | 2.74 ± 0.084 | 4.58 ± 0.071 | 4.18 ± 0.087 |
| SAPPPVQTLTLTVYDPETGRLVKIEVTRRPDGTLEVRVEVVDLETNEVTTETITLPGLTLDELLKLLEEASA [r9_618_TrROS_Hall] | 3.09 ± 0.16 | 4.02 ± 0.16 | 3.65 ± 0.16 |
| SAGMTFEVRYPLPPGQTHKEAREEVKDMVESIAREFMPEGWKIEPKDIDVDPDKGWIEYKVDIEIPPGMSAG [r5_146_TrROS] | 1.19 ± 0.12 | 1.94 ± 0.12 | 1.72 ± 0.18 |
| SAGRKIEIHVPYDELRELFGPGQTAEDLADWIAQEGYQIEDIEVEPEPNPNNGKKYYRVTFEVKPPKKSAGG [r19_376_TrROS] | 0.345 ± 0.054 | 1.28 ± 0.12 | 0.95 ± 0.11 |
| SAGGSAGGSAGASPTAPAVTVEVKTEEVPNNDLLKTTTTTYFPGTGTTVTTETILPPGLGSAGGSAGGSAGG [r11_746_JUSTAS] | 0.187 ± 0.053 | -0.269 ± 0.086 | -0.00225 ± 0.12 |
| SAGNIKIKEVEINDNTLTISYRMPGSGMWVKASIQADKGAIKIKSEYYPPKGKPIGEEEFTVPLDELKLSAG [r5_308_TrROS] | 0.979 ± 0.042 | 1.74 ± 0.31 | 1.45 ± 0.28 |
| SAGGSAGGPLRIEIEIKIEIFPFPDGWYLIRMTIKIKVYNPGEDGQPIAEYEITFYFIIPPGDFSAGGSAGG [r6_60_TrROS] | 4.25 ± 0.17 | 6.06 ± 0.15 | > 6 |
| SAGNVTIRISFYPRKDGWFFRIKVHFDGKPRELMIPPDDSAEDLADELEKKLGADVTDIEVEWMPLEDGSAG [r5_181_TrROS] | 3.27 ± 0.1 | 4.25 ± 0.083 | 3.88 ± 0.12 |
| SAMETYEYPVTGDSATFTVPVPPDHIAKVTVHYPSGSTDTVVPPGVTTTFTVPSSNATVTITIYPRSALSAG [r14_882_JUSTAS] | 1.01 ± 0.025 | 1.53 ± 0.11 | 1.34 ± 0.068 |
| SAGGSAGGSAGGKPVKLEISFDKETNTITIKAVDEENKTVTETTIKVTFLPPPPPPPPKSAGGSAGGSAGGS [r10_331_TrROS_Hall] | 1.09 ± 0.12 | 2.14 ± 0.37 | 2.03 ± 0.48 |
| SAGGPEVFVFRDPLTGTWSLAVYDPSTGLWTVTYPDGTVALYRRSGDSWELVEARPVPPAPVDPDLASAGGS [r16_687_TrMRF] | 3.34 ± 0.12 | 3.714 ± 0.014 | 3.54 ± 0.065 |
| SAGGSAGGSAKPQKVELELFPNGELIIRLPETGARIRLKVEVFKDASGNPFFKLEIVDIDPSAGGSAGGSAG [r3_76_TrMRF] | 2.48 ± 0.14 | 2.66 ± 0.058 | 2.6 ± 0.16 |
| SAGGSAEIEVTVYYDPETGEILVLINFPDETKFEVAVEEFKKLFEKVEAVKLPDGSVLVRSPLKDASAGGSA [r15_1057_TrMRF] | 1.65 ± 0.12 | 1.7 ± 0.071 | 1.59 ± 0.12 |
